Experimental findings from patent EP2481750A1 (Mayo Foundation for Medical Education and Research, dated 2012) are described below.

The target of the assay is T1, human B7-DC (human, UniProt Q9BQ51 20-273).
T1 construct: whole, on cells; also called hB7.DC; human B7-DC orthologue
T1 sequence (looked up): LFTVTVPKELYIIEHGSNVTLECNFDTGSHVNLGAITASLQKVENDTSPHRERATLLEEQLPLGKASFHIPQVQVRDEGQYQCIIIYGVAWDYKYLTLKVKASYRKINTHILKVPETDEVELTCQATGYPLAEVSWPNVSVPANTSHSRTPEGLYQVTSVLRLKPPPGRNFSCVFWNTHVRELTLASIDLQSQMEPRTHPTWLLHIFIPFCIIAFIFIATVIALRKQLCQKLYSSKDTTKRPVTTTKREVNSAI
In words: flow cytometry on Ltk cells transiently transfected with human B7-DC. (In general: Flow cytometry measures light scatter and fluorescence of single cells or particles in a stream.)

B1: sHIgM12 (pentameric human monoclonal IgM/kappa antibody, B7-DC cross-linking antibody) (antibody)
heavy: QVQLQESGPGLLKPSETLSLTCTVSGGSVSLYYWSWIRQSPGKEPEWIGYIYSSGSTDYNPSLRSRVTISLDTSNNRFSLNLRSVTAADTAVYWCARSASIRGWFDPWGQGTLVTVSSGSASAPTLFPLVSCENSPSDTSSVAVGCLAQDFLPDSITFSWKYKNNSDISSTRGFPSVLRGGKYAATSQVLLPSKDVMQGTDEHVVCKVQHPNGNKEKNVPLPVIAELPPKVSVFVPPRDGFFGNPRKSKLICQATGFSPRQIQVSWLREGKQVGSGVTTDQVQAEAKESGPTTYKVTSTLTIKESDWLSQSMFTCRVDHRGLTFQQNASSMCVPDQDTAIRVFAIPPSFASIFLTKSTKLTCLVTDLTTYDSVTISWTRQNGEAVKTHTNISESHPNATFSAVGEASICEDDWNSGERFTCTVTHTDLPSPLKQTISRPKGVALHRPDVYLLPPAREQLNLRESATITCLVTGFSPADVFVQWMQRGQPLSPEKYVTSAPMPEPQAPGRYFAHSILTVSEEEWNTGETYTCVVAHEALPNRVTERTVDKSTGKPTLYNVSLVMSDTAGTCY
light: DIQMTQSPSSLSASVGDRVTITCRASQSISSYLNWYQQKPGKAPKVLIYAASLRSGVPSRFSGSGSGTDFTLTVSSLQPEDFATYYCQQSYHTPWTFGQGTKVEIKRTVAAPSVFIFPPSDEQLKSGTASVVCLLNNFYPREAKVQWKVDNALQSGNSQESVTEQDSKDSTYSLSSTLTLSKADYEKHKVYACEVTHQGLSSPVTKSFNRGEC
notes: also called intact sHIgM12; pentameric sHIgM12
Turning to B1, the binding result is given as “binds”.
